Test results taken from article PMC10786891, “Massively parallel profiling of RNA-targeting CRISPR-Cas13d”.
Changes are numbered by the printed parent chain. Numbers in names are those of the source.

T1: EsCas13d, nuclease-dead (Eubacterium siraeum, UniProt B0MS50, R295A;H300A;R849A;H854A)
T1 sequence: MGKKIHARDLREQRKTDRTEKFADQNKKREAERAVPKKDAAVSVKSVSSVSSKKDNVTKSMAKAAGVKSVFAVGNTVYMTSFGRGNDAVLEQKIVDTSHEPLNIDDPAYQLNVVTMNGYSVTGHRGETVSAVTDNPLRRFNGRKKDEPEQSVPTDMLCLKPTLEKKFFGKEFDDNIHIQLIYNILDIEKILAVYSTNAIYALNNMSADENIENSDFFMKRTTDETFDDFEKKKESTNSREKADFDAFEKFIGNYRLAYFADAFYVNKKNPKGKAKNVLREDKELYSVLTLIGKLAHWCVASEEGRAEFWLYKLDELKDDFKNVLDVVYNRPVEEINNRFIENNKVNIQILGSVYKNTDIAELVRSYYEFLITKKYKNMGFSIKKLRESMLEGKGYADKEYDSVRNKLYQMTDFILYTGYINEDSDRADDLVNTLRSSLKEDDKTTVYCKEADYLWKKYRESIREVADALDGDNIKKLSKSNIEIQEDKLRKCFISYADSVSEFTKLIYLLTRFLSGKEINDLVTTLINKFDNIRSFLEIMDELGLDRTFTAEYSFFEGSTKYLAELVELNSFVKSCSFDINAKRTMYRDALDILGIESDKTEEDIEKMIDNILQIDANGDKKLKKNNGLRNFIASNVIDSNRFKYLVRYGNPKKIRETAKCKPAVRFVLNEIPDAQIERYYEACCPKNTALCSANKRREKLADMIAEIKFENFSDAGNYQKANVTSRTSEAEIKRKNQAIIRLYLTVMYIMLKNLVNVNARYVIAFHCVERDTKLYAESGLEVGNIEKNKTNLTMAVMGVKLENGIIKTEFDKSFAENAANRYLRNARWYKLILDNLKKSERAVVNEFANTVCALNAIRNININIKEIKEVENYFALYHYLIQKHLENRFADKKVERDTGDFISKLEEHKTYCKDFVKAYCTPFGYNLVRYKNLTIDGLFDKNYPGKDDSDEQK

B1: target 1 MT 5'PFS CAG 3'PFS CUG (mixed)
RNA 1: CACCCGUGCAAAAAUGCAGGGGUCUAAAACUGAGCGGAUAACCUCUCUAUGG
RNA 2: GGGAAUGGAUCCACAUCUACGAAUUCCAGCCAUAGAGAGGUUAUCCGCUCACUGAGAUCGGAAGAGCACACGU
B2: target 1 MT 5'PFS GUC 3'PFS CCC (mixed)
RNA 1: B1 RNA 1
RNA 2: B1 RNA 2 with C27G, A28U, G29C, U53C, G54C
B3: target 1 MT 5'PFS GGC 3'PFS AAG (mixed)
RNA 1: B1 RNA 1
RNA 2: B1 RNA 2 with C27G, A28G, G29C, C52A, U53A
B4: target 1 MT 5'PFS AUG 3'PFS CAC (mixed)
RNA 1: B1 RNA 1
RNA 2: B1 RNA 2 with C27A, A28U, U53A, G54C
B5: target 1 C2A,A14C (mixed)
RNA 1: B1 RNA 1
RNA 2: B1 RNA 2 with C27G, A28U, G29A, A38C, C50A, U53C
B6: target 1 MT 5'PFS GCG 3'PFS AGG (mixed)
RNA 1: B1 RNA 1
RNA 2: B1 RNA 2 with C27G, A28C, C52A, U53G
B7: target 1 MT 5'PFS GGC 3'PFS CAC (mixed)
RNA 1: B1 RNA 1
RNA 2: B1 RNA 2 with C27G, A28G, G29C, U53A, G54C
B8: target 1 C4G,G15A (mixed)
RNA 1: B1 RNA 1
RNA 2: B1 RNA 2 with C27G, A28U, G29A, G37A, C48G, U53C
B9: target 1 MT 5'PFS CCU 3'PFS ACC (mixed)
RNA 1: B1 RNA 1
RNA 2: B1 RNA 2 with A28C, G29U, C52A, U53C, G54C
B10: target 1 MT 5'PFS GUG 3'PFS UGU (mixed)
RNA 1: B1 RNA 1
RNA 2: B1 RNA 2 with C27G, A28U, C52U, U53G, G54U
B11: target 1 MT 5'PFS GCG 3'PFS AGC (mixed)
RNA 1: B1 RNA 1
RNA 2: B1 RNA 2 with C27G, A28C, C52A, U53G, G54C
B12: target 1 MT 5'PFS GGA 3'PFS CCU (mixed)
RNA 1: B1 RNA 1
RNA 2: B1 RNA 2 with C27G, A28G, G29A, U53C, G54U
B13: target 1 insG 3' of 9,insU 3' of 1 (mixed)
RNA 1: B1 RNA 1
RNA 2: GGGAAUGGAUCCACAUCUACGAAUUCGUACCAUAGAGAGGUUAGUCCGCUCAUCCGAGAUCGGAAGAGCACACGU
B14: target 1 MT 5'PFS GAC 3'PFS CCU (mixed)
RNA 1: B1 RNA 1
RNA 2: B1 RNA 2 with C27G, G29C, U53C, G54U
B15: target 1 MT 5'PFS GUC 3'PFS CCA (mixed)
RNA 1: B1 RNA 1
RNA 2: B1 RNA 2 with C27G, A28U, G29C, U53C, G54A
B16: target 1 MT 5'PFS GGC 3'PFS CAG (mixed)
RNA 1: B1 RNA 1
RNA 2: B1 RNA 2 with C27G, A28G, G29C, U53A
B17: target 1 MT 5'PFS GUC 3'PFS UGA (mixed)
RNA 1: B1 RNA 1
RNA 2: B1 RNA 2 with C27G, A28U, G29C, C52U, U53G, G54A
B18: target 1 MT 5'PFS GUC 3'PFS CCG (mixed)
RNA 1: B1 RNA 1
RNA 2: B1 RNA 2 with C27G, A28U, G29C, U53C
B19: target 1 MT 5'PFS GUG 3'PFS UGC (mixed)
RNA 1: B1 RNA 1
RNA 2: B1 RNA 2 with C27G, A28U, C52U, U53G, G54C
B20: target 1 MT 5'PFS GUC 3'PFS UGG (mixed)
RNA 1: B1 RNA 1
RNA 2: B1 RNA 2 with C27G, A28U, G29C, C52U, U53G
B21: target 1 MT 5'PFS UUA 3'PFS ACA (mixed)
RNA 1: B1 RNA 1
RNA 2: B1 RNA 2 with C27U, A28U, G29A, C52A, U53C, G54A
B22: target 1 MT 5'PFS GUG 3'PFS UGA (mixed)
RNA 1: B1 RNA 1
RNA 2: B1 RNA 2 with C27G, A28U, C52U, U53G, G54A
B23: target 1 MT 5'PFS GCG 3'PFS AGA (mixed)
RNA 1: B1 RNA 1
RNA 2: B1 RNA 2 with C27G, A28C, C52A, U53G, G54A
B24: target 1 MT 5'PFS GGC 3'PFS AUA (mixed)
RNA 1: B1 RNA 1
RNA 2: B1 RNA 2 with C27G, A28G, G29C, C52A, G54A
B25: target 1 MT 5'PFS GUC 3'PFS UGU (mixed)
RNA 1: B1 RNA 1
RNA 2: B1 RNA 2 with C27G, A28U, G29C, C52U, U53G, G54U
B26: target 1 MT 5'PFS UUU 3'PFS AUC (mixed)
RNA 1: B1 RNA 1
RNA 2: B1 RNA 2 with C27U, A28U, G29U, C52A, G54C
B27: target 1 MT 5'PFS AGC 3'PFS AGG (mixed)
RNA 1: B1 RNA 1
RNA 2: B1 RNA 2 with C27A, A28G, G29C, C52A, U53G
B28: target 1 MT 5'PFS GUC 3'PFS CCU (mixed)
RNA 1: B1 RNA 1
RNA 2: B1 RNA 2 with C27G, A28U, G29C, U53C, G54U
B29: target 1 MT 5'PFS GUG 3'PFS UGG (mixed)
RNA 1: B1 RNA 1
RNA 2: B1 RNA 2 with C27G, A28U, C52U, U53G
B30: target 1 MT 5'PFS GGC 3'PFS AUC (mixed)
RNA 1: B1 RNA 1
RNA 2: B1 RNA 2 with C27G, A28G, G29C, C52A, G54C
B31: target 1 MT 5'PFS GAG 3'PFS AUU (mixed)
RNA 1: B1 RNA 1
RNA 2: B1 RNA 2 with C27G, C52A, G54U
B32: target 1 MT 5'PFS CCA 3'PFS AGU (mixed)
RNA 1: B1 RNA 1
RNA 2: B1 RNA 2 with A28C, G29A, C52A, U53G, G54U
B33: target 1 insU 3' of 22,insC 3' of 12 (mixed)
RNA 1: B1 RNA 1
RNA 2: GGGAAUGGAUCCACAUCUACGAAUUCGUACUCAUAGAGAGGCUUAUCCGCUCACCGAGAUCGGAAGAGCACACGU
B34: target 1 MT 5'PFS GAG 3'PFS AUA (mixed)
RNA 1: B1 RNA 1
RNA 2: B1 RNA 2 with C27G, C52A, G54A
B35: target 1 MT 5'PFS GAG 3'PFS AUC (mixed)
RNA 1: B1 RNA 1
RNA 2: B1 RNA 2 with C27G, C52A, G54C
B36: target 1 MT 5'PFS UUA 3'PFS ACC (mixed)
RNA 1: B1 RNA 1
RNA 2: B1 RNA 2 with C27U, A28U, G29A, C52A, U53C, G54C
B37: target 1 MT 5'PFS UUA 3'PFS ACG (mixed)
RNA 1: B1 RNA 1
RNA 2: B1 RNA 2 with C27U, A28U, G29A, C52A, U53C
B38: target 1 MT 5'PFS GCG 3'PFS AGU (mixed)
RNA 1: B1 RNA 1
RNA 2: B1 RNA 2 with C27G, A28C, C52A, U53G, G54U
B39: target 1 MT 5'PFS GUC 3'PFS UGC (mixed)
RNA 1: B1 RNA 1
RNA 2: B1 RNA 2 with C27G, A28U, G29C, C52U, U53G, G54C
B40: target 1 MT 5'PFS GAC 3'PFS UGU (mixed)
RNA 1: B1 RNA 1
RNA 2: B1 RNA 2 with C27G, G29C, C52U, U53G, G54U

Target: T1, EsCas13d, nuclease-dead
Test: crRNA (strand 1, pre-loaded); Mg2+; 40 mM Tris-HCl pH 7.5, 150 mM NaCl, 6 mM MgCl2, 1 mM DTT, 0.1% Tween-20, 0.2 mg/ml BSA; 25 C; 10 min per concentration, then washed
Details: tags: His6-TwinStrep-SUMO cleaved; N-terminal SNAP kept (SNAP-Surface 488); label: 3' end held by stalled T7 RNA polymerase

| Binder | Kd |
| --- | --- |
| B1 | 19 ± 7.5 nM |
| B2 | 19 ± 9 nM |
| B3 | 36 ± 10 nM |
| B4 | ~29.5 nM |
| B5 | 48.7 ± 3.1 nM |
| B6 | 100 ± 50 nM |
| B7 | ~17 nM |
| B8 | 13.2 ± 1.2 nM |
| B9 | ~14 nM |
| B10 | 27.1 ± 2.4 nM |
| B11 | 37 ± 11 nM |
| B12 | 10.3 ± 2.85 nM |
| B13 | 23.3 ± 3.4 nM |
| B14 | ~14 nM |
| B15 | ~18 nM |
| B16 | 25.5 ± 8.5 nM |
| B17 | 14.7 ± 3.4 nM |
| B18 | 14.8 ± 2.55 nM |
| B19 | 9.4 ± 0.45 nM |
| B20 | 65 ± 15.5 nM |

| Binder | Kd |
| --- | --- |
| B21 | 37 ± 13 nM |
| B22 | 14.9 ± 1.15 nM |
| B23 | 26.4 ± 4.8 nM |
| B24 | 16.6 ± 2.05 nM |
| B25 | 21.5 ± 5 nM |
| B26 | 55 ± 18 nM |
| B27 | ~60 nM |
| B28 | 15.3 ± 2.6 nM |
| B29 | 110 ± 19.5 nM |
| B30 | 42.5 ± 8.5 nM |
| B31 | 36 ± 11 nM |
| B32 | 14 ± 5.9 nM |
| B33 | 92 ± 34 nM |
| B34 | 34 ± 8.5 nM |
| B35 | ~60 nM |
| B36 | ~22.5 nM |
| B37 | 21.8 ± 4.7 nM |
| B38 | 29.5 ± 7 nM |
| B39 | 13.2 ± 2.95 nM |
| B40 | 41.5 ± 12.5 nM |
